Results published in PMC10652518, “Enzyme kinetics of deoxyuridine triphosphatase from Western corn rootworm” (BMC Research Notes, 2023).

Experiments:
[1] = system: T1, O=c1ccn([C@H]2C[C@H](O)[C@@H](COP(=O)(O)OP(=O)(O)OP(=O)(O)O)O2)c(=O)[nH]1; assay: cresol red proton-release assay, stopped-flow spectrophotometer, integrated Michaelis-Menten fit; assay type: biochemical, Diabrotica virgifera; conditions: 50 nM enzyme, 1 mM dUTP; activity prevented by EDTA
T1 construct: starts at residue 25; R89K to prevent secondary thrombin cleavage; N-terminal 6-His tag cut by thrombin; codon-optimized synthetic gene in pET-15, E. coli; trimer (48 kDa by SEC)
Source text: cresol red proton-release assay, stopped-flow spectrophotometer, integrated Michaelis-Menten fit on WCR dUTPase

[2] = biological target: the molecule itself; assay: SEC; Superdex matrix, molecular weight calibrated with the BioRad SEC standard; tag-free dUTPase, estimated 48 kDa against 15.6 kDa on SDS-PAGE

Row | Molecule | Km [1] [µM] | kcat [1] [s⁻¹] | kcat/Km [1] [M⁻¹ s⁻¹] | stoichiometry N [2]
1 | WCR dUTPase (Diabrotica virgifera virgifera; R89K) | 0.7 ± 0.1 | 30 ± 0.5 | 4e+07 | 
2 | Western corn rootworm (Diabrotica virgifera virgifera) deoxyuridine 5'-triphosphate nucleotidohydrolase (dUTPase), construct from residue 25 with Arg89Lys, … (enzyme, UniProt A0A6P7FUX9 25-168, looked up, dUTPase of Diabrotica virgifera virgifera LeConte (protein XP_028136545; UniProt ID A0A6P7FUX9_DIAVI); the construct starts at the 25th residue of the WCR dUTPase; Arg89 changed to Lys to prevent secondary thrombin cleavage; Cloned into pET-15 by NcoI and XhoI; also called WCR dUTPase; product of WCR DUT; source: E. coli, purified (Ni-NTA, HiTrap Q; His-tag removed with human alpha-thrombin, …)) GANILLKYTKVIEEAYPPTKGSVKAAGYDLKSAHDVVVPARGKALVDTGLKIELPEGCYGRIAPKSGLAVKNFIDVGAGVVDEDYRGLLKVVLFNHSDNDFEVKSGDRIAQLICERIFYPELEEVKELTDTARGEGGFGSTGTQ |  |  |  | 3
